Our source for the EC50 values is patent publication US20240132604A1.

This assay addresses CHO-hCCR8 (human) (UniProt P51685). Nature of the assay: FACS binding, CHO-K1 cells overexpressing human CCR8. In general terms: A flow cytometer gives signals particle by particle.

What is called EC50 is the midpoint of the concentration-response curve. A higher EC50 goes with a less potent agent.

Chain of UniProt P51685 (P51685 whole entry): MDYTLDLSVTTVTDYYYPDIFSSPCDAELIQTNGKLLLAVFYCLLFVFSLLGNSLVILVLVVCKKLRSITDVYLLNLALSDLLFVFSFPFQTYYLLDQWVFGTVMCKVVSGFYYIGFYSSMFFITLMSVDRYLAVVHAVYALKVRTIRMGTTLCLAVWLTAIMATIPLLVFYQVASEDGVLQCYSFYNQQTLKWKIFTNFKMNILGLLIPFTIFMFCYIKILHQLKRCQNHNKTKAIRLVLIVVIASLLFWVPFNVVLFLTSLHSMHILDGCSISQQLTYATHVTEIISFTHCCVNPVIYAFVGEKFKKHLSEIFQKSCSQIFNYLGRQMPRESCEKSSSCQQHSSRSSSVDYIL

The substance GS-1811 gave an EC50 of 0.658 nM.
